± gives the standard deviation of the averaged measurements.
Tested on: ATP
Assay: switch fluorescence ratio, 500 uM ATP over buffer (Cy3 cluster intensity, sum of 5 cycles each) (fold (ratio)); higher = stronger signal-on switching upon ATP binding; sequences stand for … in TCGTCGGCAGCGTCAGATGTGTATAAGAGACAGTTTTTTTTTTTTTTTTTTTTTTTTT…TC
Conditions: aptamer strand: ATP DNA aptamer (quencher-CACCTGGGGGAGTATTGCGGAGGAAGG + anchor), 100 nM annealed; ATP concentration: 500 uM
Summary of the method: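 After annealing to 100 nM quencher-labelled ATP aptamer, Cy3-labelled switching-strand clusters on a modified Illumina MiSeq flow-cell were imaged in selection buffer. A second image followed after 15 min with 500 uM ATP at 22 °C, and five such buffer/ATP cycles were done, each separated by NaOH stripping and re-annealing. The fluorescence ratio, averaged per switch-domain sequence, is summed target-cycle over summed buffer-cycle Cy3 intensity per cluster, with clusters outside 100-1000 RFU excluded.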
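Also: ATP exposure 15 min at 22 °C before imaging.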

| Sequence | switch fluorescence ratio |
| --- | --- |
| TCTAGTCGAA | 1.02 ± 0.036 |
| TCTAGTGGTT | 1 ± 0.019 |
| TCTAGTGTCG | 1.03 ± 0.11 |
| TCTATAGTTC | 1.01 ± 0.034 |
| TCTATCGTTA | 1.04 ± 0.03 |
| TCTATGGTCT | 0.99 ± 0.011 |
| TCTATTCGGG | 0.9484 ± 0.0029 |
| TCTATTGCTG | 0.995 ± 0.02 |
| TCTATTTTTT | 1.01 ± 0.014 |
| TCTCAATGCG | 1.02 ± 0.065 |
| TCTCATGTAG | 1.018 ± 0.009 |
| TCTCCATTGT | 1.04 ± 0.046 |
| TCTCGGGGCT | 0.97 ± 0.011 |
| TCTCGGTGAG | 0.99 ± 0.051 |
| TCTCTAGCTG | 1.05 ± 0.041 |
| TCTCTGGTTA | 1.01 ± 0.018 |
| TCTCTTTAAT | 0.997 ± 0.021 |
| TCTCTTTGTG | 1.02 ± 0.024 |
| TCTGACGTAC | 2.57 ± 0.19 |
| TCTGAGACGC | 1.05 ± 0.019 |
| TCTGAGCAAG | 2.47 ± 0.25 |
| TCTGAGCGGA | 1.14 ± 0.13 |
| TCTGAGGGGG | 1 ± 0.027 |
| TCTGAGTGCG | 1.02 ± 0.02 |
| TCTGAGTTTG | 0.993 ± 0.038 |
| TCTGATGGCT | 1.04 ± 0.05 |

| Sequence | switch fluorescence ratio |
| --- | --- |
| TCTGCGGGGA | 1.14 ± 0.21 |
| TCTGCTTCAG | 0.973 ± 0.022 |
| TCTGGATCA | 1.0079 ± 0.00014 |
| TCTGGGAAGA | 1.02 ± 0.044 |
| TCTGGGAAGT | 0.986 ± 0.011 |
| TCTGGGCCGG | 0.989 ± 0.034 |
| TCTGGGGCGC | 0.984 ± 0.015 |
| TCTGGTAGCG | 1.02 ± 0.021 |
| TCTGGTATGA | 1.01 ± 0.015 |
| TCTGGTGTTT | 0.986 ± 0.024 |
| TCTGGTTGCG | 1 ± 0.037 |
| TCTGGTTGGT | 1.01 ± 0.051 |
| TCTGTAAGGC | 1.39 ± 0.066 |
| TCTGTCCTTC | 1.06 ± 0.054 |
| TCTGTCGGGC | 0.994 ± 0.054 |
| TCTGTTATCA | 1 ± 0.029 |
| TCTGTTGGGC | 0.995 ± 0.025 |
| TCTGTTGTG | 1.03 ± 0.029 |
| TCTGTTTTGG | 1 ± 0.038 |
| TCTTAAAGCA | 1.02 ± 0.06 |
| TCTTAAGAGT | 0.9987 ± 0.0022 |
| TCTTACGATC | 1 ± 0.021 |
| TCTTACGGAC | 1.31 ± 0.017 |
| TCTTAGAGGT | 0.983 ± 0.026 |
| TCTTAGCCCT | 1.01 ± 0.025 |
| TCTTAGGCGG | 0.977 ± 0.039 |

| Sequence | switch fluorescence ratio |
| --- | --- |
| TCTTAGGGAT | 1 ± 0.052 |
| TCTTATAAGC | 0.984 ± 0.028 |
| TCTTATTTTT | 1.01 ± 0.025 |
| TCTTCTATCT | 0.985 ± 0.039 |
| TCTTCTGGCT | 1.02 ± 0.019 |
| TCTTCTGTCG | 1.001 ± 0.0087 |
| TCTTGAAATT | 1.021 ± 0.0031 |
| TCTTGATTTT | 1 ± 0.011 |
| TCTTGGCCAT | 1.24 ± 0.32 |
| TCTTGGGTTG | 0.986 ± 0.029 |
| TCTTGGTCAG | 0.991 ± 0.025 |
| TCTTGGTCGG | 1.026 ± 0.0041 |
| TCTTGGTGT | 0.9898 ± 0.0088 |
| TCTTGTAGCG | 0.986 ± 0.016 |
| TCTTTAAAGT | 1.04 ± 0.083 |
| TCTTTAATAA | 1 ± 0.039 |
| TCTTTATGTG | 0.998 ± 0.016 |
| TCTTTCAAGT | 0.994 ± 0.011 |
| TCTTTCCTGC | 1.022 ± 0.0014 |
| TCTTTCTTTC | 1.01 ± 0.03 |
| TCTTTGGGGT | 1.01 ± 0.012 |
| TCTTTGTATG | 0.991 ± 0.017 |
| TCTTTGTCTA | 0.972 ± 0.02 |
| TCTTTTAAAG | 0.988 ± 0.035 |
| TCTTTTCGAA | 1.01 ± 0.033 |
| TCTTTTCTTT | 1.04 ± 0.043 |

| Sequence | switch fluorescence ratio |
| --- | --- |
| TCTTTTGGCG | 0.927 ± 0.059 |
| TCTTTTGGGA | 1.16 ± 0.29 |
| TCTTTTGGTG | 1.03 ± 0.019 |
| TCTTTTTGGG | 1.13 ± 0.16 |
| TCTTTTTTGC | 0.986 ± 0.073 |
| TCTTTTTTGG | 1 ± 0.042 |
| TGAAAAAGAT | 0.989 ± 0.028 |
| TGAAAAGAGG | 0.988 ± 0.021 |
| TGAAAAGGGC | 0.9875 ± 0.0095 |
| TGAAAATTCG | 1.08 ± 0.11 |
| TGAAAGAACT | 1.16 ± 0.21 |
| TGAAAGTTGG | 0.997 ± 0.013 |
| TGAAATAATT | 0.9791 ± 0.0017 |
| TGAAATGAAT | 0.994 ± 0.02 |
| TGAAATGGTT | 1.01 ± 0.017 |
| TGAAATGTTT | 0.999 ± 0.031 |
| TGAAATTGTT | 1 ± 0.045 |
| TGAACAAATG | 1.04 ± 0.11 |
| TGAACGGCTT | 1.04 ± 0.011 |
| TGAAGAAGGT | 1.03 ± 0.015 |
| TGAAGACTGT | 0.988 ± 0.045 |
| TGAAGCAAAT | 1.77 ± 0.075 |
| TGAAGGATAC | 1.28 ± 0.23 |
| TGAAGGGTTC | 1.12 ± 0.24 |
| TGAAGGGTTT | 0.996 ± 0.052 |
| TGAAGTAGGG | 1.05 ± 0.12 |

| Sequence | switch fluorescence ratio |
| --- | --- |
| TGAAGTTCGC | 0.969 ± 0.021 |
| TGAAGTTTTC | 0.968 ± 0.022 |
| TGAAGTTTTG | 1.02 ± 0.027 |
| TGAATAGGAG | 1.011 ± 0.0027 |
| TGAATAGGGA | 0.982 ± 0.05 |
| TGAATATAGT | 1.004 ± 0.0042 |
| TGAATATATG | 1.02 ± 0.032 |
| TGAATCGGGA | 0.99 ± 0.011 |
| TGAATCTGTT | 1.02 ± 0.05 |
| TGAATGAAGG | 1.01 ± 0.058 |
| TGAATGATAG | 0.983 ± 0.026 |
| TGAATGGGGC | 0.953 ± 0.042 |
| TGAATTTTAC | 1.03 ± 0.04 |
| TGACACGGTT | 0.9814 ± 0.0058 |
| TGACATAGGT | 1.02 ± 0.019 |
| TGACATGTAG | 1.01 ± 0.052 |
| TGACATTATA | 1.01 ± 0.032 |
| TGACATTTGT | 0.965 ± 0.048 |
| TGACCCTATA | 1.06 ± 0.028 |
| TGACCCTTAG | 0.987 ± 0.025 |
| TGACCCTTCT | 1.14 ± 0.05 |
| TGACCGAAGT | 1.043 ± 0.0028 |
| TGACCGGGGG | 1.0571 ± 5.2e-05 |
| TGACCTCGTG | 0.995 ± 0.039 |
| TGACGAGGTG | 0.9816 ± 0.0051 |
| TGACGCAAAG | 1.63 ± 0.065 |

| Sequence | switch fluorescence ratio |
| --- | --- |
| TGACGCATAG | 1.7 ± 0.12 |
| TGACGCCGGG | 0.98 ± 0.018 |
| TGACGCGTTT | 1.02 ± 0.041 |
| TGACGGCTGG | 1.026 ± 0.0044 |
| TGACGGGAGG | 0.991 ± 0.04 |
| TGACGGGCAC | 1.17 ± 0.036 |
| TGACGGGGGA | 0.986 ± 0.021 |
| TGACGGGGTT | 0.992 ± 0.026 |
| TGACGGTGTG | 0.973 ± 0.02 |
| TGACGTTAAG | 1.03 ± 0.086 |
| TGACGTTATG | 1 ± 0.053 |
| TGACTACATG | 1.04 ± 0.013 |
| TGACTACCAT | 1.07 ± 0.08 |
| TGACTCCAGG | 1.23 ± 0.023 |
| TGACTTAGTG | 1.03 ± 0.016 |
| TGACTTATGG | 0.983 ± 0.08 |
| TGACTTGGCG | 1.026 ± 0.0087 |
| TGACTTGTGC | 0.976 ± 0.037 |
| TGAGAAATTA | 1.05 ± 0.014 |
| TGAGAAGTTG | 1.01 ± 0.066 |
| TGAGAATGGG | 0.995 ± 0.044 |
| TGAGAATTTA | 0.9935 ± 0.0019 |
| TGAGACTAGT | 0.989 ± 0.023 |

— the supplement of paper PMC10126150
